Laboratory results published in patent EP4717710A1 (UIF (University Industry Foundation), Yonsei University, dated 2026).

Assays:
IL-4R on cells = biological target: T1, IL-4R on cells (human, UniProt P24394 26-825); assay: cell-based or functional assay
T1 sequence (looked up): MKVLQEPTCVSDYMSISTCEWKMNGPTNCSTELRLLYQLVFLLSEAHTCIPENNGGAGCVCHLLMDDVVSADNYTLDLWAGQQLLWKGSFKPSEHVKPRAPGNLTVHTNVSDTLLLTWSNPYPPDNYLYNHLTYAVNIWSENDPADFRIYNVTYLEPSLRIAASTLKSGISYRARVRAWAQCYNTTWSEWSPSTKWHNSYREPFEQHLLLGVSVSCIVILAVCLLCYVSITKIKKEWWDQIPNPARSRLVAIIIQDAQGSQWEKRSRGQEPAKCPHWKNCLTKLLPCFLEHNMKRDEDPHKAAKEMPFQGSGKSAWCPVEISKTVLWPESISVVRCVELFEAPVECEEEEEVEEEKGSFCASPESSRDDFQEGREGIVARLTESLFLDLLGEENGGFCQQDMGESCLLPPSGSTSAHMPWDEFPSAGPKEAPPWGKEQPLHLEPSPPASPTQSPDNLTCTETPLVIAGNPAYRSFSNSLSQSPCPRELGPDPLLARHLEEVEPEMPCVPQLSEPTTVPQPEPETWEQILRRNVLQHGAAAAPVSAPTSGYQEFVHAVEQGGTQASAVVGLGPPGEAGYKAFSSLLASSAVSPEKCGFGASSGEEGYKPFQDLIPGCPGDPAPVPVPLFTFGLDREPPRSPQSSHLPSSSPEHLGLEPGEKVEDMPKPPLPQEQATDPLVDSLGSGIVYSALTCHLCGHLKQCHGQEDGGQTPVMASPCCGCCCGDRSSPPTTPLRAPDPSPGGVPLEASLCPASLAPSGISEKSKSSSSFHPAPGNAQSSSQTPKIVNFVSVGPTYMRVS

[1] = biological target: T2, IL-4R (recombinant protein) (human, UniProt P24394 26-232, biotinylated (Acro Biosystems ILR-H82E9) in the ELISA); assay: SPR
T2 construct: Bought recombinant IL-4R; also called IL-4 receptor; IL-4R molecule
T2 sequence (looked up): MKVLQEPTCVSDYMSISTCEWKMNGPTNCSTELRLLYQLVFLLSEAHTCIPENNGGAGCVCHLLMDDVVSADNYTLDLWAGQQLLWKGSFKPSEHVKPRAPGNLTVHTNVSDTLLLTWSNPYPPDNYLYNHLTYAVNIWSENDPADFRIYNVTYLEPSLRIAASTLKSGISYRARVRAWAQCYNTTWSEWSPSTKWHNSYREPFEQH

[2] = biological target: T2, IL-4R (recombinant protein); assay: ELISA, periplasmic extract captured by anti-c-Myc, 50 nM biotinylated IL-4R against MBP

| IL-4 signal blocking in STAT6-luciferase reporter cells (667 pM IL-4, 24 hours) (IL-4R on cells) | Kd [1] [nM] | fold-change of OD values for IL-4R and MBP [2] [fold] | Binder |
| --- | --- | --- | --- |
| ~2 fold concentration relative to dupilumab | 1420 | > 1.7 | H5 nanobody (VHH, Synthetic nanobody (sybody, convex scaffold) expressed from pSBinit in E. coli and purified on TALON resin; It was detected with anti-Myc, so the tested protein probably carries Myc/His tags; also called WT H5; H5 wild-type nanobody) VHH: QVQLVESGGGSVQAGGSLRLSCAASGSISSITYLGWFRQAPGKEREGVAALSTSSGTTYYADSVKGRFTVSLDNAKNTVYLQMNSLKPEDTALYYCAAADKGREYTLARAKYWYWGQGTQVTVSA |
|  | 1.06 |  | H5 E104R (VHH, also called H5 E104R mutant) VHH: QVQLVESGGGSVQAGGSLRLSCAASGSISSITYLGWFRQAPGKEREGVAALSTSSGTTYYADSVKGRFTVSLDNAKNTVYLQMNSLKPEDTALYYCAAADKGRRYTLARAKYWYWGQGTQVTVSA |
|  | 708 |  | H5 A110Y (VHH, also called H5 A110Y mutant) VHH: QVQLVESGGGSVQAGGSLRLSCAASGSISSITYLGWFRQAPGKEREGVAALSTSSGTTYYADSVKGRFTVSLDNAKNTVYLQMNSLKPEDTALYYCAAADKGREYTLARYKYWYWGQGTQVTVSA |
